Measured values taken from publication doi:10.1101/2024.08.19.608659.

Biological target: hATP5A1 pre-protein (F1-ATP synthase subunit alpha precursor) (Homo sapiens, UniProt P25705)
Assay: EMSA

B1: RPL13 RNA ligand (ssRNA)
RNA: CUUUCCGCUCGGCUGUUUUCCUGCGCAGGAGCCGCA
  binding result: binds
